This data set concerns the molecule itself. The experiment in a line: gel filtration in the presence of DNA and Mg++ (self-association).

One protein from patent publication US6395523 (NEW ENGLAND BIOLABS, dated 2002) can be followed below.

B1: nicking endonuclease N.BstNBI (enzyme)
chain: MAKKVNWYVSCSPRSPEKIQPELKVLANFEGSYWKGVKGYKAQEAFAKELAALPQFLGTTYKKEAAFSTRDRVAPMKTYGFVFVDEEGYLRITEAGKMLANNRRPKDVFLKQLVKWQYPSFQHKGKEYPEEEWSINPLVFVLSLLKKVGGLSKLDIAMFCLTATNNNQVDEIAEEIMQFRNEREKIKGQNKKLEFTENYFFKRFEKIYGNVGKIREGKSDSSHKSKIETKMRNARDVADATTRYFRYTGLFVARGNQLVLNPEKSDLIDEIISSSKVVKNYTRVEEFHEYYGNPSLPQFSFETKEQLLDLAHRIRDENTRLAEQLVEHFPNVKVEIQVLEDIYNSLNKKVDVETLKDVIYHAKELQLELKKKKLQADFNDPRQLEEVIDLLEVYHEKKNVIEEKIKARFIANKNTVFEWLTWNGFIILGNALEYKNNFVIDEELQPVTHAAGNQPDMEIIYEDFIVLGEVTTSKGATQFKMESEPVTRHYLNKKKELEKQGVEKELYCLFIAPEINKNTFEEFMKYNIVQNTRIIPLSLKQFNMLLMVQKKLIEKGRRLSSYDIKNLMVSLYRTTIECERKYTQIKAGLEETLNNWVVDKEVRF
notes: Tested for self-association by gel filtration under the same condition as MlyI; No dimers were observed
Regarding B1, the binding result is given as “no binding”.
